Experimental data: the supplement of paper PMC9170038

How the values were obtained:
MS2 coat protein [1] = experiment: apparent KD of MS2 coat protein; designed switch direction (-1 OFF switch, 1 ON switch): 1; higher = weaker reporter binding
Method in brief: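 RNA switches sharing common flanks were transcribed by stalled E. coli RNA polymerase on Illumina chips. A doubling series of SNAP-549-labelled MS2 coat protein, from 0.7 or 1.5 nM to 3 µM, was applied in Tris-HCl pH 7.5 buffer with KCl, MgCl2, BSA, DTT, tRNA and Tween-20. Each step lasted 0.8–1.5 h at the bottom of the series and 10–20 min at the top. Normalised cluster fluorescence was curve-fitted, giving apparent KD as the per-design median over clusters.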

MS2 coat protein [2] = experiment: apparent KD of MS2 coat protein; higher = weaker reporter binding; settings: Eterna round: R107
Method in brief: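 Each design's apparent KD comes from the median of binding-curve fits to its normalised clusters. Those clusters carried RNA switches transcribed on-chip from Illumina sequencing clusters. SNAP-549-labelled MS2 coat protein was titrated onto them in twofold steps (0.7 or 1.5 nM to 3 µM; per step 0.8–1.5 h down to 10–20 min). Conditions were 100 mM Tris-HCl pH 7.5, 80 mM KCl, 4 mM MgCl2, without or with constant ligand.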

[3] = input ligand: microRNA oligo, concentration not stated
[4] = Eterna round: R95, input ligand: FMN 200 uM
[5] = Eterna round: R95, input ligand: microRNA oligo, concentration not stated
[6] = Eterna round: R95, input ligand: none

Row | Sequence | apparent KD of MS2 coat protein (MS2 coat protein [1]; input ligand: FMN 200 uM) [nM] | apparent KD of MS2 coat protein (MS2 coat protein [1]; [3]) [nM] | apparent KD of MS2 coat protein (MS2 coat protein [1]; input ligand: none) [nM] | apparent KD of MS2 coat protein (MS2 coat protein [1]; [4]) [nM] | apparent KD of MS2 coat protein (MS2 coat protein [1]; [5]) [nM] | apparent KD of MS2 coat protein (MS2 coat protein [1]; [6]) [nM] | other results
1 | AACAUGUGGUGUCACAUGAGGAUCACCCAUGUGGUAAAACCUGAGGAUAUAACGAACCAAAUCAAUUAGAAGGUAGGAUCACAA [AK SSNG3-V2-18] (Eterna round: R96, puzzle: Same State NG 3) | 59.7 | 46.5 | 64.2 | – | – | – | –
2 | AUAUUUAAUGCAGGAUAUGAUUAACAUGAGGAUCACCCAUGUGGUGUUGUGAGUAAGGAGAGUGAUCAGAAGGGCAUUUUUUUU [JMF's solution 100] (Eterna round: R96, puzzle: Same State NG 2) | 821 | 322 | 467 | – | – | – | –
3 | AGUCCAGCCUAAGCUGGACAAAAGCAUGUACAUGAGGAUCACCCAUGUUCAUGUACAAGCUUUUUGCAAGUCAAAAG [Mat - hsa-mir-208a - Mod of JL - 76] (puzzle: Sensor for hsa-mir-208a) | – | – | – | 350 | 28.1 | 664 | –
4 | AGUCCAGCGAAAGCUGGACAAAAGCAUGUACAUGAGGAUCACCCAUGUUCGUGUACAAGCUUUUUGCUCGUCUUAAA [JL mod - D95 - 5] (puzzle: Sensor for hsa-mir-208a) | – | – | – | 536 | 14.6 | 554 | –
5 | AAUUUAAUACAUGAGGAUCACCCAUGUAAAUUAAUUAAGAUCUAGGAUAUCAGCUCGAAUAGAGCUGAGAAGGAGAUCACAUGU [SSNG3/19-B1] (Eterna round: R96, puzzle: Same State NG 3) | – | 13.8 | – | – | – | – | –
6 | GAGCCAGUCCGAGGAUAUUCAUAUAAAUUAAAUACAUGAGGAUCACCCAUGUAGGCGGAGCCUUGGGAGAAGGCGGACUGGCUC [Xeonanisa>>5] (Eterna round: R96, puzzle: Same State NG 2) | 22.7 | 35.9 | 58.4 | – | – | – | –
7 | UUGAUGUACUGAGGAUAUCGUGUCGUCUGUUUUUACAUGAGGAUCACCCAUGUGGGUUGUGGUAUCGAGAAGGCAGUUUUCUUA [JR_SSNG2_Sub030] (Eterna round: R96, puzzle: Same State NG 2) | 306 | 560 | 582 | – | – | – | –
8 | UGUUGGUUUUUGCUCGUUUUUUGUGUUGAACAUGAGGAUCACCCAUGUAUUGUACAGUCCAGUUUGGUAAUGGUGCG [JR_SHM208A_Sub046] (puzzle: Sensor for hsa-mir-208a) | – | – | – | 41.6 | 31.4 | 57.5 | –
9 | AUUCGUUAGAUAGGAUAUCACCAUACAUGAGGAUCACCCAUGUUUACCACGCUGGUUUUUCAUACUGAGAAGGAUCUUGAUGAC [JR_SSNG2_Sub006] (Eterna round: R96, puzzle: Same State NG 2) | 20.7 | 16.7 | 30 | – | – | – | –
10 | ACAUGAGAGUUAGGAUAUGUUGUACCUACAUGUGACAUGAGGAUCACCCAUGUGGUAAGUAUGAGGCAGAAGGGACAGAUAUGU [Equivalence 46 - Jieux - Same State NG 2] (Eterna round: R96, puzzle: Same State NG 2) | 75.7 | 51.7 | 137 | – | – | – | –
11 | UUUAUUAAUGCAGGAUAUGAUUAACAUGAGGAUCACCCAUGUGGUGUUGUGAGUAAGGAGAGUGAUCAGAAGGGCAUUUUUUUU [JMF's solution 39] (Eterna round: R96, puzzle: Same State NG 2) | 524 | 430 | 402 | – | – | – | –
12 | AUUAAACAUGAGGAUCACCCAUGUCAACUAAGUCGAGGAUAUGGGCAAAUAAAAUAAGAACCAGAAGGCGAAUAAU [salish99_ss1_r3_074] (puzzle: Same State 1) | – | – | – | 55.9 | 347 | 260 | –
13 | UCUACAUGAGGAUCACCCAUGUGCCAUGAUACCAGACAUGAAAAUGUCCCUUGGCAGCGUGGGUAGCGCAUCCGAAAGGAUGCGC [#08 SameState-TheophyllineA] | – | – | – | – | – | – | apparent KD of MS2 coat protein (MS2 coat protein [2]; input ligand: arginine 13.2 mM): 1370 nM; apparent KD of MS2 coat protein (MS2 coat protein [2]; input ligand: none): 702 nM; apparent KD of MS2 coat protein (MS2 coat protein [2]; input ligand: theophylline 20 uM): 240 nM; apparent KD of MS2 coat protein (MS2 coat protein [2]; input ligand: theophylline 2 mM): 1310 nM; apparent KD of MS2 coat protein (MS2 coat protein [2]; input ligand: tryptophan 2.4 mM): 20.5 nM
